Experimental data from PMC4627807, “Klotho Regulates 14-3-3ζ Monomerization and Binding to the ASK1 Signaling Complex in Response to Oxidative Stress” (PLoS ONE, 2015).

Key:
[1] = target: GST-tagged 14-3-3ζ dimer deficient mutant (Dm) (UniProt P63104); test: pull-down; lysates of HEK 293 cells transfected with GST-14-3-3ζ Wt or Dm adsorbed onto glutathione sepharose, binding buffer 20 mM Tris-Cl pH 7.5, 2 mM EDTA, 1 mM EGTA, 80 mM NaCl; endogenous Trx by Western blot; cells treated with buffer or secreted Klotho for 40 min
14-3-3ζ = target: T1, 14-3-3ζ (human (endogenous in HEK 293), UniProt P63104 1-245); test: co-IP; endogenous proteins; HEK 293 lysate precipitated with 14-3-3ζ antibody, protein A agarose; Trx by Western blot; cells treated with buffer, 200 pM Klotho or NAC for 40 min; Trx released from the beads only with DTT, 2-ME or THP; settings: partners not purified
T1 construct: 14-3-3ζ, endogenous in HEK 293 cells; Klotho treatment of the cells raises phosphorylation at Ser-58 and the monomer level; the phosphorylated form was not isolated as a molecule of its own; also called 14-3-3zeta; endogenous 14-3-3ζ; source: endogenous, HEK 293 lysate
T1 sequence (looked up): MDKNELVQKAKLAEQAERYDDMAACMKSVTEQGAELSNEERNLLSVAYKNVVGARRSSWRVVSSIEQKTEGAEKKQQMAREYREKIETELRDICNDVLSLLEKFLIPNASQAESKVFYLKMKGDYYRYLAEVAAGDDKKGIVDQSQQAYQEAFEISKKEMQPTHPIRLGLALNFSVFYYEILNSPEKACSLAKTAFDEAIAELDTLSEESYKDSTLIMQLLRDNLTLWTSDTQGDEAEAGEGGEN

B1: thioredoxin (Trx) (natural protein, human (endogenous in HEK 293), UniProt P10599 1-105, looked up)
chain: MVKQIESKTAFQEALDAAGDKLVVVDFSATWCGPCKMIKPFFHSLSEKYSNVIFLEVDVDDCQDVASECEVKCMPTFQFFKKGQKVGEFSGANKEKLEATINELV
notes: thioredoxin (Trx), endogenous in HEK 293 cells; active site cysteines named as Cys32/35; Detected by Western blot or iCE with a Trx antibody; source: endogenous, HEK 293 lysate
[1]
  fold increase of bound Trx relative to 14-3-3ζwt: 2 fold
14-3-3ζ
  fold increase of bound Trx, Klotho-treated versus buffer-treated cells: ~2 fold
